Experimental data reported in patent US20090004212A1, “Tumour vaccines for MUC1-positive carcinomas” (priority 1997, published 2009).
No end group written: not given here. *: point of attachment. αGalNAc = CC(=O)N[C@@H]1[C@@H](O)[C@@H](O)[C@@H](CO)O[C@@H]1*

Legend:
[1] = molecular target: T1, human 20S immunoproteasomes (Homo sapiens, UniProt P28062+P28065+P40306); assay: In vitro proteolysis of MUC1 repeat peptides and glycopeptides by immunoproteasomes; assay type: biochemical
T1 construct: purchased Immatics Biotechnologies (Tübingen, Germany)
Protocol: A 1 mg/ml solution of immunoproteasomes prepared according to a published protocol (20) was purchased from Immatics Biotechnologies (Tübingen, Germany) and stored frozen at −80° C.
(§1) Glycopeptides were incubated with 10 μg of human 20S immunoproteasomes (Immatics) for […], at 37° C., in 10 μl of digestion buffer (20 mM HEPES/KOH, pH 7.6 containing 2 mM Mg(CH3COO)2 and 1 mM DTT) as described (13). Digestion was stopped after 24 h by freezing the sample at −80° C. Human cathepsin-L was purchased from Sigma (Munich, Germany) and solubilized in 0.1 M sodium acetate, pH 5.5, containing 1 mM EDTA and 1 mM dithiothreitol (12). About 5 mU of enzyme were added to sialoglycopeptide substrates SGGP1 to SGGP5 (75-100 μM) in a total volume of 20 μl. The reaction mixtures were incubated at 37° C. for 24 h and 1 μl of trifluoroacetic acid was added to stop the reaction. The reaction products were cleaned by solid-phase extraction on ZipTipC18 pipette tips and 0.5 μl aliquots were applied onto the MALDI target for mass spectrometric analysis. Kinetic studies with the non-glycosylated 100-mer P1 were performed under the same conditions and the products were chromatographed on HPLC for purification and quantification.

Human cathepsin-L = molecular target: T2, Human cathepsin-L (Homo sapiens, UniProt P07711); assay: In vitro proteolysis by cathepsin-L; assay type: biochemical; settings: 37° C., 24 h
T2 construct: purchased Sigma (Munich, Germany)
Protocol: as §1

HLA-A0201 = molecular target: T3, HLA-A0201 (Homo sapiens, UniProt P04439, D140Y/D185E/D98H/E176V/E277Q/G131W/G231S/I119V/I121R/I166T/I218V/L300P/L318F/N151K/N90K/P208A/P217A/Q86G/Q94H/R138H/R169H/T345S); assay: MHC stabilization assay on T2 cells; assay type: binding; settings: T2 cells, 100 μg peptide, 16 h, W6/32 antibody, FACS
T3 construct: endogenous in cells; host or cells: T2 cell line (TAP-deficient)
Protocol: MHC stabilization assay is based on the increased affinity of HLA-A, -B, -C specific monoclonal W6/32 antibody for the stabilized conformation of MHC molecules after binding of a peptide ligand. The T2 cells express empty MHC molecules with short half-life.
For MHC stabilization assay T2 cells were grown in IMDM medium supplemented with 2% FCS. T2 cells were washed in PBS from the residual serum, and resuspended at 1×10^6/ml of IMDM supplemented with 0.1% FCS and 25 mM HEPES. Half of a million of cells were incubated in 48-well cell culture plate with 1 μg of […]2-microglobulin and 100 μg of peptide for 16 h at 27° C. and 8% CO2. Cells were washed with 5 ml PBS, centrifuged at 180×g for 5 min and the pellet was resuspended in 10 μl PBS containing 1 μg of W6/32 antibody and incubated at 4° C. for 30 minutes.
Subsequently, cells were washed in PBS with 1% BSA (3×5 ml) and the pellet was resuspended in 50 μl of secondary anti-mouse Alexa 488 antibody (1:1000 in PBS with 0.1% BSA), incubated for 30 minutes in the dark, washed with PBS (3×5 ml) and resuspended in 500 μl of PBS. Binding of the W6/32 antibody to MHC class I molecules was analyzed by FACS on the Beckman Coulter ADCXL4C flow cytometer. As a positive control hepatitis B virus core antigen HBVc18-27 P6Y˜C ([…]) was used. As a negative control T2 cells were used, to which no peptide was added.
Relative binding capacities of the peptides were expressed as the percent of the positive control signal (100%), normalized to the negative control (0%). A mean fluorescence that was at least 10% higher than the negative control level was considered positive binding.

CD8+ T-cells = assay: IFN-gamma and TNF-alpha production by peptide-primed T-cells; assay type: cell-based, human; settings: after last cycle of restimulation, 4 weeks of in vitro culture
Protocol: (§2) Peripheral blood mononuclear cells (PBMCs) were isolated from buffy coats of HLA-A*0201 healthy donors by Ficoll-Hypaque (MP Biomedicals, Solon, Ohio) density gradient centrifugation.
(§3) Dendritic cells (DCs) were generated by culturing adherent monocytes for 6 days in AIM-V medium (Invitrogen, Carlsbad, Calif.) supplemented with 500 U/mL granulocyte macrophage colonystimulating factor (GM-CSF, R&D, Minneapolis, Minn.) and 1000 U/mL interleukin (IL)-4 (R&D), and then matured for 48 hours with a cocktail of cytokines consisting of 10 ng/mL of each, tumor necrosis factor (TNF)-alpha, IL-6, IL-1beta (R&D), and 1 μg/mL prostaglandine E2 (Sigma, St. Louis, Mo.). […] DCs pulsed with single peptides were combined, washed, resuspended and used as stimulator cells. They were added to the autologous lymphocyte fraction in 24-well Linbro plates (ICN, Aurora, Ohio) at a ratio of 1:10 at culture initiation and fed in RPMI 1640 media supplemented with 10% human AB serum, 10 ng/ml rhIL-6 (R&D) and 5 ng/ml rhIL-12 (PreproTech, Rocky Hill, N.J.). On day 10 and thereafter every 9 days, T cells were restimulated at a ratio of 1 DC to 20 T cells, in RPMI 1640 media supplemented with 10% human AB serum, rhIL-2 and rhIL-7 (20 U/ml each, R&D).
(§4) Antigen Specificity was Assessed after 4 Stimulations. Three Days Past Each stimulation cell supernatant was collected and IFNy secretion was quantified using OptElA human IFNy ELISA kit (BD). CD8+ T-cells were enriched using magnetic microbeads (human CD8+ T Cell Isolation Kit II from Miltenyi Biotech, Auburn, Calif.) according to the manufacture's instructions and analyzed by flow cytometry for intracellular IFN-gamma and TNF-alpha production after a final 5-hour restimulation with peptide-loaded DCs in the presence of monensin (Golgi Stop, BD; 21). CTL activity was determined 3 days after the last restimulation. […] They were washed, labeled with 5- (and 6)-carboxyfluorescein diacetate succinimidyl ester (CFSE) according to the manufacture's instructions (Immunochemistry, Bloomington, Minn.) and added to a 96-well plate in duplicates at 5000 cells/well. CFSE labeled T2 cells not loaded with peptides were used as controls. CD8+ T effector cells were added at various E:T ratios for a 6-hour incubation at 37° C. Target cell death was detected by adding 7-amino-actinomycin (7-AAD, Immunochemistry) to each well 10 min before data analysis by flow cytometry and analysis was performed according to the manufacture's instructions (22).

T2 target cells = assay: CTL activity against peptide-loaded T2 target cells (CFSE/7-AAD); assay type: cell-based, human; settings: T2 cells loaded with 10 μg/ml peptide, 6-hour incubation
Protocol: as §2, §3, §4

[2] = molecular target: T4, HLA-A*0201 allele of the MHC class I molecule, empty, on the surface of TAP-deficient T2 cells (human); assay: MHC stabilization assay on T2 cells, W6/32 staining, flow cytometry
T4 construct: also called HLA-A2

Molecule	ligation strength (binding to HLA-A0201) (HLA-A0201)	CD8+ cells producing IFN-γ (CD8+ T-cells) [%]	TNF-α production by CD8+ cells (CD8+ T-cells)	lysis of peptide-pulsed T2 target cells by induced CD8+ T cells (T2 target cells)	binding result [2]	other results
(CVISAPDTRPAPGSTAPPAH)x5 [Peptide P1]						AVERAGE FRAGMENT LENGTH ([1]; digest by immunoproteasomes): 25.2; NUMBER OF FRAGMENTS ([1]; digest by immunoproteasomes, HPLC and MALDI-MS): 105; % of glycopeptide ([1]; glycosylated 8- to 11-meric fragments relative to total 8- to 11-mers): 0%; 8-11 mers (%) ([1]; relative to total amount of digestion products of immunoproteasomal cleavage): 13%; digestion of the substrate by cathepsin L (Human cathepsin-L): quantitative digestion of the substrate within 24 h
SAPDT(-GalNAc)RPAPG (SAPDTRPAPG) [Peptide F2]	strong binding	22	not TNF-α	efficiently lysed		ligation strength (binding to HLA-A0201) (HLA-A0201; listed as SAP10-T5*): binding comparably strong in the glycosylated and non-glycosylated form; ligation strength (binding to HLA-A0201) (HLA-A0201; listed as SAP10-T5-GalNAc): slightly weaker binding; lysis of peptide-pulsed T2 target cells by induced CD8+ T cells (T2 target cells; listed as SAP10-T5*): efficiently kill
SAPDTRPAPG (fragment of MUC1; listed as Homo sapiens) [Peptide F1]	strongest binders	28.8	not TNF-α	efficiently lysed		lysis of peptide-pulsed T2 target cells by induced CD8+ T cells (T2 target cells; listed as SAP10): efficiently kill
SAPDTRPAPG (also called F1) [SAP10, non-glycosylated MUC1 tandem repeat peptide SAPDTRPAPG]					binds	
SAPDT(αGalNAc)RPAPG (Glycopeptide; also called SAP10-T5-GalNAc; F2) [SAPDT(-GalNAc)RPAPG (SAP10-T5*)]					binds	
